Patent publication US20240124563A1 (NANJING ZAIMING PHARMACEUTICAL, published 2024)

Key:
[1] = target: T1, human MSLN-R1-his protein (human, UniProt Q13421 296-390); experiment: ELISA, antibody 1 nM
T1 construct: MSLN-R1 = Glu296-Thr390; also called hMSLN-R1-his; not shown: histidine tag
T1 chain: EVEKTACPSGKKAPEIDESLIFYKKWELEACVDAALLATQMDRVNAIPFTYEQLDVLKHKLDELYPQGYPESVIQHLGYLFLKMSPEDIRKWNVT

[2] = target: T2, human MSLN-R2-his protein (human, UniProt Q13421 391-486); experiment: ELISA, antibody 1 nM
T2 construct: MSLN-R2 = Ser391-Asn486; also called hMSLN-R2-his; not shown: histidine tag

[3] = target: T2, human MSLN-R2-his protein; experiment: ELISA, antibody 0.1 nM
[4] = target: T3, human MSLN-R3-his protein (human, UniProt Q13421 487-598); experiment: ELISA, antibody 0.1 nM
T3 construct: MSLN-R3 = Met487-Ser598; also called hMSLN-R3-his; not shown: histidine tag

[5] = target: T1, human MSLN-R1-his protein; experiment: ELISA, antibody 0.001 nM
[6] = target: T2, human MSLN-R2-his protein; experiment: ELISA, antibody 0.001 nM
[7] = target: T2, human MSLN-R2-his protein; experiment: ELISA, antibody 0 nM (blank)
[8] = target: T4, human MSLN-FL-his protein (human, UniProt Q13421 296-580); experiment: competitive ELISA on MSLN-FL-His; other antibody: NB148-13 (3.m1)
T4 construct: Made in HEK293E cells, purified on nickel column; also called hMSLN-FL-his; not shown: histidine tag

[9] = target: T4, human MSLN-FL-his protein; experiment: competitive ELISA on MSLN-FL-His; other antibody: NB148-25 (3.m2)
[10] = target: T4, human MSLN-FL-his protein; experiment: competitive ELISA on MSLN-FL-His; other antibody: NB148-35 (3.m4)
[11] = target: T4, human MSLN-FL-his protein; experiment: competitive ELISA on MSLN-FL-His; other antibody: NB149-34 (3.m8)
[12] = target: T4, human MSLN-FL-his protein; experiment: competitive ELISA on MSLN-FL-His; other antibody: NB149-95 (3.m11)
[13] = target: T4, human MSLN-FL-his protein; experiment: competitive ELISA on MSLN-FL-His; other antibody: Tab107 (C) (1.m4)

T2 sequence (Q13421 other isoform, or with tags, fused parts or gaps): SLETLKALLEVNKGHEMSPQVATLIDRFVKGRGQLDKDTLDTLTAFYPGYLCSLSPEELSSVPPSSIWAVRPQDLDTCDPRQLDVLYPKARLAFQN
T3 sequence (Q13421 495-606): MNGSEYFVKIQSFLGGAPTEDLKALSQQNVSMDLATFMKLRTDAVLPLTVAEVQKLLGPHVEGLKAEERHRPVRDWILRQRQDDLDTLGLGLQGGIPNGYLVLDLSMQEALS

B1: Tab107 (YP3, hIgG1) (antibody, V domains shown)
VH: QEQLVESGGGLVQPGASLTLTCTASGIDFSRYYMCWVRQAPGKGLEGIACIYIGGSGSTYYASWAKGRFTISKASSTTVTLQMTSLTAADTATYFCARGTNLNYIFRLWGPGTLVTVSS
VL: DVVMTQTPSPVSAAVGGTVTIKCQASQSINNGLAWYQQKPGQPPRLLIYSASNLESGVPSRFKGSGSGTEFTLTISDLECDDAATYYCQCIWDGNSYVNAFGGGTEVVVRT
notes: also called YP3 human IgG1 antibody
OD450 nm [1]: 0.05
OD450 nm [2]: 0.05
OD450 nm [3]: 0.04
OD450 nm [4]: 0.05
OD450 nm [5]: 0.05
OD450 nm [6]: 0.05
OD450 nm [7]: 0.05
inhibition rate [8]: 38%
inhibition rate [9]: 23%
inhibition rate [10]: 26%
inhibition rate [11]: -8%
inhibition rate [12]: -5%
inhibition rate [13]: 65%
